For the test, the target named is T1, (His)6-NLRP1 (NLR family, pyrin domain-containing 1), purified recombinant full-length protein from Sf21 cells (human), Q9C000.
T1 chain: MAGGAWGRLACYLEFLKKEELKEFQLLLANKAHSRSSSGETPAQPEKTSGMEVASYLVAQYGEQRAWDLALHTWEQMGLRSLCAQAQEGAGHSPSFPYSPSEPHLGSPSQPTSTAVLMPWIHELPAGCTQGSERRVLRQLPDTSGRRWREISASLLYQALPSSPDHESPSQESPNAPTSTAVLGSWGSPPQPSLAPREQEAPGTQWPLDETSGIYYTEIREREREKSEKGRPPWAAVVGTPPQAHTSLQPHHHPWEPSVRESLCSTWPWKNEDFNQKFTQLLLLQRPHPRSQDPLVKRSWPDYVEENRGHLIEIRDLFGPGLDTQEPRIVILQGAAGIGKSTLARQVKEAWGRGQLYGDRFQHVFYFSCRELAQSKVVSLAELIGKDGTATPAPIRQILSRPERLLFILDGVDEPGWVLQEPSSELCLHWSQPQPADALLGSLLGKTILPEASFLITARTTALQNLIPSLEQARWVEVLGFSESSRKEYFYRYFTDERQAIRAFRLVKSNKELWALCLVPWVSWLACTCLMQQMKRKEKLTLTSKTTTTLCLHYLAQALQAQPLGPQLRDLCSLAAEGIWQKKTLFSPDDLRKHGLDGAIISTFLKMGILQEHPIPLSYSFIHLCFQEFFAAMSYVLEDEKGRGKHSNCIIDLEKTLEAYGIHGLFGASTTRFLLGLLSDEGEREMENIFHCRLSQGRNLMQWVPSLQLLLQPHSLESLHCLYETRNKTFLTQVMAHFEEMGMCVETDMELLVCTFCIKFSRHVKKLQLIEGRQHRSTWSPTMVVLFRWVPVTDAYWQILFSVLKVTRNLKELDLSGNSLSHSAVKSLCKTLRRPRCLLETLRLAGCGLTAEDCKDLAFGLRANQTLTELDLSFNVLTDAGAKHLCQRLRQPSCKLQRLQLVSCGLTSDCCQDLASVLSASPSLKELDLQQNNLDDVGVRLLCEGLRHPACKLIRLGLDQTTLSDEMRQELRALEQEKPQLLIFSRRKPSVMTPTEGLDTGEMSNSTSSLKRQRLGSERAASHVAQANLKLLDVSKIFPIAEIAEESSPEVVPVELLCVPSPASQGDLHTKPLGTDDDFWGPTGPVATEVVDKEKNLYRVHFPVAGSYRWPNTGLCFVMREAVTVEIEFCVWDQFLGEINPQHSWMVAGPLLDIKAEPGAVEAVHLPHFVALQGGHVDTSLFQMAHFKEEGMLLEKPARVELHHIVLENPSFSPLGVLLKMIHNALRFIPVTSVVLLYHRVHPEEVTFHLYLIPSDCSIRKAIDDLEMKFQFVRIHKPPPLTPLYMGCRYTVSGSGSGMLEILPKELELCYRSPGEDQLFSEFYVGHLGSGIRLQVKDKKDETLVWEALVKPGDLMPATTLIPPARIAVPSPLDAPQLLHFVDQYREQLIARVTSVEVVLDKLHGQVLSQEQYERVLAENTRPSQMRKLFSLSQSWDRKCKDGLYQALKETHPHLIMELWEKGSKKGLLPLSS
In words: cell-based or functional assay.

B1: Bcl-2 Loop peptide 71-90 (synthetic 20'mer) (peptide)
peptide: PLQTPAAPGAAAGPALSPVP
modifications: not checked
On to B1, for which the IC50 (concentration to inhibit NLRP1-induced Caspase-1 activity by 50%) came out at 9.92 nM.

The values above are taken from US20100093623A1, “COMPOSITIONS AND METHODS FOR […]-LIKE RECEPTOR ACTIVITY AND USES THEREOF” (Burnham Institute for Medical Research, priority 2008, published 2010).
